IntAct's records for PubMed 25150978

Biological target: arhg7_human ARHGEF7 (UniProt Q14155)

## Ras-related C3 botulinum toxin substrate 1 (Homo sapiens) (from UniProt P63000-1) G15A
  effect of a mutation on the interaction: increasing interaction strength
